Here are results for one substance from paper PMC11181998.

Test [1] deals with ACE2 receptor (UniProt Q9BYF1). The test is described as follows: ELISA; competitive ELISA of ACE2 binding; DCFHP samples (in solution, or with AH and 0, 20 or 200 mM sodium phosphate) stored at 4 °C (3-21 days, 1 month, or up to 4 weeks) before the assay. A general note: In an ELISA, binding on a coated surface is turned into a signal by an enzyme label.
Test [2] concerns the target ACE2 receptor (UniProt Q9BYF1). Description: ELISA; competitive ELISA of ACE2 binding; AH-adsorbed DCFHP incubated overnight at 40 °C, against a reference freshly adsorbed to AH.
Test [3] addresses ACE2 receptor (UniProt Q9BYF1). The test is described as follows: ELISA; competitive ELISA of ACE2 binding; AH-adsorbed DCFHP incubated overnight at 50 °C, against a reference freshly adsorbed to AH.
The target in test [4] is ACE2 receptor (UniProt Q9BYF1). The test is described as follows: ELISA; competitive ELISA of ACE2 binding; DCFHP at 50 mcg/mL in 20 mM Tris, 150 mM NaCl, 5% Sucrose, pH 7.5, in solution or adsorbed to 1.5 mg/mL Alhydrogel (AH); time zero or freshly adsorbed; read against a DCFHP reference sample; who was immobilised is told only in the Supplemental methods.

UniProt Q9BYF1, sequence (Q9BYF1 18-740 limits assumed): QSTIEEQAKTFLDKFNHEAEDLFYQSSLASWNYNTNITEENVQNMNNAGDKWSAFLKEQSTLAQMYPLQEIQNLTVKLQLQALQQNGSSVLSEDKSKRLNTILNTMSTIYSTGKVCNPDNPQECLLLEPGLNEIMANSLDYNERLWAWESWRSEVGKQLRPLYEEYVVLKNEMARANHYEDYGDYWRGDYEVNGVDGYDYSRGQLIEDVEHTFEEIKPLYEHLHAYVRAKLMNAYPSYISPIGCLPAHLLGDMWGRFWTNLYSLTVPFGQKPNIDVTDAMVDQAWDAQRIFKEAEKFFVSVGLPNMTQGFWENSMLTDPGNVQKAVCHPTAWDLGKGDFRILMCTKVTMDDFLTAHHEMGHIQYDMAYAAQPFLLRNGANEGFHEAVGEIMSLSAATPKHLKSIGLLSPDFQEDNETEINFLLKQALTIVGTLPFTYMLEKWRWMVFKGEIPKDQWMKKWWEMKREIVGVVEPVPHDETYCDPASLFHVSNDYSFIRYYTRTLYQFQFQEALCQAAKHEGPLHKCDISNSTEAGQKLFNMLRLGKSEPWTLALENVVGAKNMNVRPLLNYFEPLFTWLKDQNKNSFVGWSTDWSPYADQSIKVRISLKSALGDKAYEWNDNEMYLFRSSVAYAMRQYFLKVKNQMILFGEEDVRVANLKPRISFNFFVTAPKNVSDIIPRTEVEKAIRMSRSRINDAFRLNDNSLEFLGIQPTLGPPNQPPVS

In test [1], “Delta-C70-Ferritin-HexaPro (DCFHP), SARS-CoV-2 spike ferritin nanoparticle vaccine antigen, produced in Expi293 cells” registered a native antigen by ACE2 competitive ELISA after 1 month at 4 °C, AH with 0 mM phosphate of 80 µg; a native antigen by ACE2 competitive ELISA after 1 month at 4 °C, AH with 200 mM phosphate of 50 µg; a native antigen concentration by ACE2 competitive ELISA (target 50 mcg/mL), AH-adsorbed, stored at 4 °C for 3-21 days of 75 µg/mL. This substance displayed a loss of ACE2 binding after overnight at 40 °C in test [2] of 60%. The substance also gave a loss of ACE2 binding after overnight at 50 °C in test [3] of 80%. The native antigen concentration by ACE2 competitive ELISA (target 50 mcg/mL), freshly adsorbed to AH, time zero in test [4] came out at 48 µg/mL.
